Square brackets hold non-standard residues; d marks the D form. Ends that are not written are not given here. Nle = CCCC[C@H](N)C(=O)O

Experiment [1] deals with T1, hMC4-R (Homo sapiens, UniProt P32245).
T1 construct: expressed in transfected cells
The experiment in a line: competitive inhibition binding assay, 125I-NDP-alpha-MSH, hMC4-R membranes. Conditions: 1 μM test peptide; 0.4 nM 125I-NDP-alpha-MSH; hMC4-R membranes. The procedure, abridged: (§1)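 Membranes from hMC3-R, hMC4-R, hMC5-R or B-16 cells (MC1-R) incubated 90 min at room temperature with 0.4 nM 125I-NDP-alpha-MSH and rhenium-complexed test peptide, typically 1 μM, in HEPES pH 7.2 with Mg/Ca/K. Filter-bound radioactivity counted; % inhibition of specific binding (1 μM alpha-MSH defines nonspecific), triplicate means.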

Experiment [2] concerns the target T2, hMC5-R (Homo sapiens, UniProt P33032).
T2 construct: expressed in transfected cells
The experiment in a line: competitive inhibition binding assay, 125I-NDP-alpha-MSH, hMC5-R membranes. Particulars: 1 μM test peptide; 0.4 nM 125I-NDP-alpha-MSH; hMC5-R membranes. In a few lines: as §1

The target in experiment [3] is T3, hMC3-R (Homo sapiens, UniProt P41968).
T3 construct: expressed in transfected cells
Kind of experiment: competitive inhibition binding assay, 125I-NDP-alpha-MSH, hMC3-R membranes. Conditions: 1 μM test peptide; 0.4 nM 125I-NDP-alpha-MSH; hMC3-R membranes. In a few lines:
as §1

Experiment [4] concerns the target T4, MC1-R (Mus musculus, UniProt Q01727).
T4 construct: membranes prepared from hMC3-R, hMC4-R, hMC5-R, and B-16 mouse melanoma cells (containing MC1-R); endogenous in cells; host or cells: B-16 mouse melanoma cells (membranes)
Kind of experiment: competitive inhibition binding assay, 125I-NDP-alpha-MSH, B-16 mouse melanoma cell membranes. Particulars: 1 μM test peptide; 0.4 nM 125I-NDP-alpha-MSH; B-16 mouse melanoma cell membranes. In a few lines:
as §1

T1 sequence (P32245 whole entry): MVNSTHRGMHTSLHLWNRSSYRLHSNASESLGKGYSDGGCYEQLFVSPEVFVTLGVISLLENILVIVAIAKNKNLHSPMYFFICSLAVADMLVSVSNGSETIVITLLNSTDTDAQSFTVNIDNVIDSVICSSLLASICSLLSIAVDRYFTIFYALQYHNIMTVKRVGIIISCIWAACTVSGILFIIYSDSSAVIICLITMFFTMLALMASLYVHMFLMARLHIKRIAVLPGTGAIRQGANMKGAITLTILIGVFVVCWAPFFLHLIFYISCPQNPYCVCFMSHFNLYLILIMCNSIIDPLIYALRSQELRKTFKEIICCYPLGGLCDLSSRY
T4 sequence (Q01727 whole entry): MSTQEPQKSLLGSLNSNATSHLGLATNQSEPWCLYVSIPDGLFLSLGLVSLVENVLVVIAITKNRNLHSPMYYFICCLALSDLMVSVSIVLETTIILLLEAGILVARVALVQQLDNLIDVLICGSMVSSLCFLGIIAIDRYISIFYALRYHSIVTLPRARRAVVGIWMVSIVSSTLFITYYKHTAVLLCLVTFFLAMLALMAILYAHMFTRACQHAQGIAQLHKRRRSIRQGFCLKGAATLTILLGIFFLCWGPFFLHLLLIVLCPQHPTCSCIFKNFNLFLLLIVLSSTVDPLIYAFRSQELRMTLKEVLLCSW
T3 sequence (P41968 whole entry): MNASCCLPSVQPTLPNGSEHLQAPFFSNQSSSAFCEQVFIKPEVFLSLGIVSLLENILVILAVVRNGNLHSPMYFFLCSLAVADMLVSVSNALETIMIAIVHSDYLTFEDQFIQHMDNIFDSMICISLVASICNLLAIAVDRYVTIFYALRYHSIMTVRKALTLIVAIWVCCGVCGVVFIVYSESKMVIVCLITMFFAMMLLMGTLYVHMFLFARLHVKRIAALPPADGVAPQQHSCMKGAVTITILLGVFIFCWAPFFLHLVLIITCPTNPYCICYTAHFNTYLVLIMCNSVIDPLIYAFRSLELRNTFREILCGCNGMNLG
T2 sequence (P33032 whole entry): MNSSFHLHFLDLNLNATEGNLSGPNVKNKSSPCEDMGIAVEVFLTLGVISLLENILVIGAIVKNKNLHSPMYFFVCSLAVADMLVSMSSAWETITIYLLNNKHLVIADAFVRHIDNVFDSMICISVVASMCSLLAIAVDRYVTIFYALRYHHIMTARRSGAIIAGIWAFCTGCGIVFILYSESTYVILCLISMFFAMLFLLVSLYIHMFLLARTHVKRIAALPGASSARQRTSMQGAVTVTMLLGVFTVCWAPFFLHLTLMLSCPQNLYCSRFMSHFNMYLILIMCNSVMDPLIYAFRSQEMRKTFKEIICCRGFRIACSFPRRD

As for “Ac-Ser-Tyr-Ser-Nle-Glu-His-Phe-Arg-Trp-Cys-Gly-Lys-Pro-Val-NH2 (Ac-SYS[Nle]EHFRWCGKPV-NH2; not fully specified (bridges); printed as Ac-Ser-Tyr-Ser-Nle-Glu-His-Phe-Arg-Trp-Cys-Gly-Lys-Pro-Val-NH2; numbers in words are those of the source; also: oxorhenium(V) N3S1 chelate (Re(V)=O)) [1-5]”, the “% Inhibition at 1 μM at Melanocortin Receptor 4” value in experiment [1] is 0%. In addition, the “% Inhibition at 1 μM at Melanocortin Receptor 5” value in experiment [2] is reported as 0%. Further, the “% Inhibition at 1 μM at Melanocortin Receptor 3” value in experiment [3] was 0%. Further, in experiment [4], the “% Inhibition at 1 μM at Melanocortin Receptor 1” value was 57%.

For the substance “Tyr-Val-Nle-Cys-Gly-His-Phe-Arg-Trp-Asp-Arg-Phe-NH2 (YV[Nle]CGHFRWDRF-NH2; not fully specified (bridges); printed as Tyr-Val-Nle-Cys-Gly-His-Phe-Arg-Trp-Asp-Arg-Phe-NH2; numbers in words are those of the source; also: oxorhenium(V) N3S1 chelate (Re=O) with Cys) [4-9]”, in experiment [1], the “% Inhibition at 1 μM at Melanocortin Receptor 4” value came out at 4%. In addition, the “% Inhibition at 1 μM at Melanocortin Receptor 5” value in experiment [2] was 43%. The “% Inhibition at 1 μM at Melanocortin Receptor 3” value in experiment [3] stood at 19%. In experiment [4], the “% Inhibition at 1 μM at Melanocortin Receptor 1” value is listed as 1%.

Take “Ac-Ser-Tyr-Ser-Nle-Glu-His-Phe-Arg-Trp-Gly-Lys-Gly-Cys-Val-NH2 (Ac-SYS[Nle]EHFRWGKGCV-NH2; not fully specified (bridges); printed as Ac-Ser-Tyr-Ser-Nle-Glu-His-Phe-Arg-Trp-Gly-Lys-Gly-Cys-Val-NH2; numbers in words are those of the source; also: oxorhenium(V) N3S1 chelate (Re(V)=O)) [1-2]”: the “% Inhibition at 1 μM at Melanocortin Receptor 4” value in experiment [1] is listed as 0%. In experiment [2], the “% Inhibition at 1 μM at Melanocortin Receptor 5” value was determined as 37%. Moreover, the “% Inhibition at 1 μM at Melanocortin Receptor 3” value in experiment [3] is listed as 6%. For the same substance, the “% Inhibition at 1 μM at Melanocortin Receptor 1” value in experiment [4] turned out to be 87%.

As for “Ac-Ser-Tyr-Ser-Nle-Glu-His-Cys-Phe-Arg-Trp-Gly-Lys-Pro-Val-NH2 (Ac-SYS[Nle]EHCFRWGKPV-NH2; not fully specified (bridges); printed as Ac-Ser-Tyr-Ser-Nle-Glu-His-Cys-Phe-Arg-Trp-Gly-Lys-Pro-Val-NH2; numbers in words are those of the source; also: oxorhenium(V) N3S1 chelate (Re(V)=O)) [1-8]”, in experiment [1], the “% Inhibition at 1 μM at Melanocortin Receptor 4” value came out at 0%. Moreover, the “% Inhibition at 1 μM at Melanocortin Receptor 5” value in experiment [2] turned out to be 1%. The “% Inhibition at 1 μM at Melanocortin Receptor 3” value in experiment [3] is given as 0%. The “% Inhibition at 1 μM at Melanocortin Receptor 1” value in experiment [4] stood at 42%.

Take “Tyr-Val-Nle-Gly-His-Phe-Cys-Arg-Trp-Asp-Arg-Phe-NH2 (YV[Nle]GHFCRWDRF-NH2; numbers in words are those of the source; also: oxorhenium(V) N3S1 chelate (Re=O) with Cys) [4-6]”: the “% Inhibition at 1 μM at Melanocortin Receptor 4” value in experiment [1] is −2%. For the same substance, in experiment [2], the “% Inhibition at 1 μM at Melanocortin Receptor 5” value amounted to 24%. In experiment [3], the “% Inhibition at 1 μM at Melanocortin Receptor 3” value is reported as 5%. In experiment [4], the “% Inhibition at 1 μM at Melanocortin Receptor 1” value is given as −8%.

Turning to “Tyr-Val-Nle-Gly-Cys-His-D-Phe-Arg-Trp-Asp-Arg-Phe-NH2 (YV[Nle]GCH[dF]RWDRF-NH2; not fully specified (bridges); printed as Tyr-Val-Nle-Gly-Cys-His-D-Phe-Arg-Trp-Asp-Arg-Phe-NH2; numbers in words are those of the source; also: oxorhenium(V) N3S1 chelate complex (Re=O)) [3-9]”, in experiment [1], the “% Inhibition at 1 μM at Melanocortin Receptor 4” value came out at 55%. Besides, the “% Inhibition at 1 μM at Melanocortin Receptor 5” value in experiment [2] is on record as 67%. In addition, the “% Inhibition at 1 μM at Melanocortin Receptor 3” value in experiment [3] was found to be 69%. Moreover, in experiment [4], the “% Inhibition at 1 μM at Melanocortin Receptor 1” value is listed as 77%.

What is called % Inhibition is the drop in the measured response relative to a control, in per cent.
